Patent US20250092127A1 (Regeneron, published 2025)

Biological target: T1, mouse IL-4R (mouse, UniProt P16382 26-233, limits assumed)
T1 sequence (looked up): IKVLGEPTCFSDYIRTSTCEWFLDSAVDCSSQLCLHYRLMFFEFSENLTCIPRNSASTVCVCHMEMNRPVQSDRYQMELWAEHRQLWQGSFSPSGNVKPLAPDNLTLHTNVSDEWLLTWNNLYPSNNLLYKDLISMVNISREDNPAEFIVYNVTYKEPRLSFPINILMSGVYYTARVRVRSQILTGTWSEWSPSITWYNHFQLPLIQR
Test: cell-based or functional assay

- IC50 of inhibition of IL-4-dependent proliferation of cell lines: 1.9 nM
- IC50 of inhibition of IL-13-dependent proliferation of cell lines: 0.011 nM
B1: REGN1103 (antibody, V domains shown)
VH: EVQLQQSGPELVKPGASVRMSCKASGYTFTDYNIHWVKQSHGKSLEWIGYIYPNNGDNGYNQKFRGKATLTVDKSSSTAYMELRSLTSDDSAVYYCARGRLRYFDVWGTGTTVTVSS
VL: NIVLTQSPASLAVSLGQRATISCRASESVDNYGHSFMHWYQQKPGQPPKLLIYLASNLESGVPARFSGSGSRTDFTLTLDPVEADDAATYYCQQYNEDPPTFGSGTKLEIK
